Test results from article PMC6555819, “Comprehensive study of nuclear receptor DNA binding provides a revised framework for understanding receptor specificity”.

B1: NRC3_wobSeed28_DR1_C7G_o1 (dsDNA)
DNA 1: GCCCTAGTGGGCCAAAGGTCATTGATTCCAATGCTCGCGATTGACAGCGTAGAATGAAGG
DNA 2: CCTTCATTCTACGCTGTCAATCGCGAGCATTGGAATCAATGACCTTTGGCCCACTAGGGC
B2: NRC3_wobSeed73_DR3_T8A_o1 (dsDNA)
DNA 1: GCCAAACAAGGTCACAGAGGTCAAAGTCCGTGCGTAGCGATTGACAGCGTAGAATGAAGG
DNA 2: CCTTCATTCTACGCTGTCAATCGCTACGCACGGACTTTGACCTCTGTGACCTTGTTTGGC
B3: NRC3_wobSeed43_DR1_A20C_o1 (dsDNA)
DNA 1: GCCCAGACAGGTGAAAGGTCACTCAGTCTGGTACGCGCGATTGACAGCGTAGAATGAAGG
DNA 2: CCTTCATTCTACGCTGTCAATCGCGCGTACCAGACTGAGTGACCTTTCACCTGTCTGGGC
B4: NRC3_wobSeed38_DR1_T16G_o1 (dsDNA)
DNA 1: GCCCTGCTAGGTCAAGGGTCAGCTAAAGCAGCTCGCGCGATTGACAGCGTAGAATGAAGG
DNA 2: CCTTCATTCTACGCTGTCAATCGCGCGAGCTGCTTTAGCTGACCCTTGACCTAGCAGGGC
B5: NRC3_wobSeed97_DR4_T8A_o1 (dsDNA)
DNA 1: GCCAAACAAGGTCACGAAAGGTCAAAGTCGAATGACGCGATTGACAGCGTAGAATGAAGG
DNA 2: CCTTCATTCTACGCTGTCAATCGCGTCATTCGACTTTGACCTTTCGTGACCTTGTTTGGC
B6: NRC3_wobSeed97_DR4_T8G_o1 (dsDNA)
DNA 1: GCCAAACGAGGTCACGAAAGGTCAAAGTCGAATGACGCGATTGACAGCGTAGAATGAAGG
DNA 2: CCTTCATTCTACGCTGTCAATCGCGTCATTCGACTTTGACCTTTCGTGACCTCGTTTGGC
B7: NRC3_wobSeed31_DR1_A13C_o1 (dsDNA)
DNA 1: GCTCATATAGGTCAAAGGTGAAAGTCGGTGTGGTAAGCGATTGACAGCGTAGAATGAAGG
DNA 2: CCTTCATTCTACGCTGTCAATCGCTTACCACACCGACTTTCACCTTTGACCTATATGAGC
B8: NRC3_wobSeed31_DR1_G20C_o1 (dsDNA)
DNA 1: GCTCATATAGGTAAAAGGTCAAAGTCGGTGTGGTAAGCGATTGACAGCGTAGAATGAAGG
DNA 2: CCTTCATTCTACGCTGTCAATCGCTTACCACACCGACTTTGACCTTTTACCTATATGAGC
B9: NRC3_wobSeed46_DR1_G21A_o1 (dsDNA)
DNA 1: GCTTACCAAGGTGAAAGGTCATTGATGCACGCCTTGGCGATTGACAGCGTAGAATGAAGG
DNA 2: CCTTCATTCTACGCTGTCAATCGCCAAGGCGTGCATCAATGACCTTTCACCTTGGTAAGC
B10: NRC3_wobSeed42_DR1_C19G_o1 (dsDNA)
DNA 1: GCTATACAGGGTCAAAGGGCAGAGTACGAATGTCGAGCGATTGACAGCGTAGAATGAAGG
DNA 2: CCTTCATTCTACGCTGTCAATCGCTCGACATTCGTACTCTGCCCTTTGACCCTGTATAGC
B11: NRC3_random_hg19_13_o1 (dsDNA)
DNA 1: GCCACATCTGTAATCCCAGCACTTTGGGAGGCCAAGGCGATTGACAGCGTAGAATGAAGG
DNA 2: CCTTCATTCTACGCTGTCAATCGCCTTGGCCTCCCAAAGTGCTGGGATTACAGATGTGGC
B12: NRC3_wobSeed121_DR5_C30T_o1 (dsDNA)
DNA 1: GCCAAACTAGGTCACCGGAAGGTCAAAGTTCGCATGGCGATTGACAGCGTAGAATGAAGG
DNA 2: CCTTCATTCTACGCTGTCAATCGCCATGCGAACTTTGACCTTCCGGTGACCTAGTTTGGC
B13: NRC3_wobSeed27_DR1_A12G_o1 (dsDNA)
DNA 1: GCACTCGGAGGGCAAAGGTCAGAGCTACGCCAGTGAGCGATTGACAGCGTAGAATGAAGG
DNA 2: CCTTCATTCTACGCTGTCAATCGCTCACTGGCGTAGCTCTGACCTTTGCCCTCCGAGTGC
B14: NRC3_wobSeed138_DR5_C23T_o1 (dsDNA)
DNA 1: GCGATACAGGGTCAGCTAGAGGTCAGAGTATGGAAAGCGATTGACAGCGTAGAATGAAGG
DNA 2: CCTTCATTCTACGCTGTCAATCGCTTTCCATACTCTGACCTCTAGCTGACCCTGTATCGC
B15: NRC3_wobSeed32_DR1_A11G_o1 (dsDNA)
DNA 1: GCTCTTGTAGGTCAAAGGTTAAGAAAGCCGAAGCCTGCGATTGACAGCGTAGAATGAAGG
DNA 2: CCTTCATTCTACGCTGTCAATCGCAGGCTTCGGCTTTCTTAACCTTTGACCTACAAGAGC
B16: NRC3_wobSeed30_DR1_C12T_o1 (dsDNA)
DNA 1: GCACTAGCAGGTCAAGGGTCACTCAAGATTAGTCCGGCGATTGACAGCGTAGAATGAAGG
DNA 2: CCTTCATTCTACGCTGTCAATCGCCGGACTAATCTTGAGTGACCCTTGACCTGCTAGTGC

What was measured:
RARa:RXRa = RARa:RXRa (Homo sapiens, UniProt P10276;P19793 full;full); assay: no ligand; PBM; 270 nM : 90 nM RXRa; PBS pH 7.4, 2% milk, 0.02% Triton X-100, 1 mM DTT, BSA, 0.4 mg/ml salmon testes DNA; settings: tags: His kept;His cleaved; copies: 1;1; label: surface-attached array probe
RARa:RXRa, sequence (P10276 whole entry, chain 1 of 2): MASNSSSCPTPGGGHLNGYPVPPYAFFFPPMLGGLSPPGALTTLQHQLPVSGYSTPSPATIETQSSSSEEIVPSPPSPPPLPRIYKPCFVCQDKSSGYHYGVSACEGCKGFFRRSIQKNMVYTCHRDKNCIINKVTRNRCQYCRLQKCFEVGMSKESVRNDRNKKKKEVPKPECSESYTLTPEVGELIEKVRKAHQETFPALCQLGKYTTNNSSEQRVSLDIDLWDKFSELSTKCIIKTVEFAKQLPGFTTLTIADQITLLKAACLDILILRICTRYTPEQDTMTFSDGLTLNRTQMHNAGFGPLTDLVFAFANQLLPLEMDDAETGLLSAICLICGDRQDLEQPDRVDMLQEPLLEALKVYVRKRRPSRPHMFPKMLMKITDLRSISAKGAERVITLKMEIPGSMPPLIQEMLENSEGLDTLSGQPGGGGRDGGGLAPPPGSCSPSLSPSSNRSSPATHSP
RARa:RXRa, sequence (P19793 whole entry, chain 2 of 2): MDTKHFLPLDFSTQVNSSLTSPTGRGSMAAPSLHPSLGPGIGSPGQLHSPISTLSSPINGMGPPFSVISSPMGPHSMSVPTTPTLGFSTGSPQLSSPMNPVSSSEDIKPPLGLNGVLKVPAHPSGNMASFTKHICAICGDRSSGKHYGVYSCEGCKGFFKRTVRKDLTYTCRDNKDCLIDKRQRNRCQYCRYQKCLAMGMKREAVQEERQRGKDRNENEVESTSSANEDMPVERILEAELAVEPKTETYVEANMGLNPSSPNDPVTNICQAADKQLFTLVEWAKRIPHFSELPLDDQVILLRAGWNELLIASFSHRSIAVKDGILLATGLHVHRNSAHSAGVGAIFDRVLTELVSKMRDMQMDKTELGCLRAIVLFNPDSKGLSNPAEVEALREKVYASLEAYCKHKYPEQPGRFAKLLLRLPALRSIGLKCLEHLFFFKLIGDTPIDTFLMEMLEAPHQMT
Summary of the method: (§1)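 Regression normalization was applied to scanned fluorescence from custom Agilent 4×180K protein-binding microarrays. Before scanning, arrays were incubated 1 h with ligand-free nuclear receptor dimers, and binding was detected with antibodies against each partner (one per run). Binding z-scores use the random background probes as reference.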

PPARg:RXRa = PPARg:RXRa (Homo sapiens, UniProt P37231;P19793 full;full); assay: no ligand; PBM; 180 nM : 90 nM RXRa; PBS pH 7.4, 2% milk, 0.02% Triton X-100, 1 mM DTT, BSA, 0.4 mg/ml salmon testes DNA; settings: tags: His kept;His cleaved; copies: 1;1; label: surface-attached array probe
PPARg:RXRa, sequence (P37231 29-505, chain 1 of 2): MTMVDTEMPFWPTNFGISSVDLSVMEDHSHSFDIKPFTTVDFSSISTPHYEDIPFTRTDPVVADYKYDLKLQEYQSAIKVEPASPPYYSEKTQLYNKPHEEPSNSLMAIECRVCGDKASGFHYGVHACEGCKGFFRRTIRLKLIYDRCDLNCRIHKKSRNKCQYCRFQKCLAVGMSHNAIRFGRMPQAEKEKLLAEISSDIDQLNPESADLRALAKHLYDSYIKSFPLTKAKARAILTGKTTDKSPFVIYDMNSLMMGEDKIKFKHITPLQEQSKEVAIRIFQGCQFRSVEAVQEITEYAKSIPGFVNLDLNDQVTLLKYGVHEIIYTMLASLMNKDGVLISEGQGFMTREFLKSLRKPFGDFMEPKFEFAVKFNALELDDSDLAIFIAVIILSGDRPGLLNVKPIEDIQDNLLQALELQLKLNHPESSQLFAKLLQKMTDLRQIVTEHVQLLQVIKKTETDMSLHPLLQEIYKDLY
PPARg:RXRa, sequence (P19793 whole entry, chain 2 of 2): as the sequence (P19793 whole entry, chain 2 of 2) above
LXRa:RXRa = LXRa:RXRa (Homo sapiens, UniProt Q13133;P19793 full;full); assay: no ligand; PBM; 270 nM : 90 nM RXRa; PBS pH 7.4, 2% milk, 0.02% Triton X-100, 1 mM DTT, BSA, 0.4 mg/ml salmon testes DNA; settings: tags: His kept;His cleaved; copies: 1;1; label: surface-attached array probe
Summary of the method: as §1

LXRb:RXRa = LXRb:RXRa (Homo sapiens, UniProt P55055;P19793 full;full); assay: as above; settings: tags: His kept;His cleaved; copies: 1;1; label: surface-attached array probe
LXRb:RXRa, sequence (P55055 whole entry, chain 1 of 2): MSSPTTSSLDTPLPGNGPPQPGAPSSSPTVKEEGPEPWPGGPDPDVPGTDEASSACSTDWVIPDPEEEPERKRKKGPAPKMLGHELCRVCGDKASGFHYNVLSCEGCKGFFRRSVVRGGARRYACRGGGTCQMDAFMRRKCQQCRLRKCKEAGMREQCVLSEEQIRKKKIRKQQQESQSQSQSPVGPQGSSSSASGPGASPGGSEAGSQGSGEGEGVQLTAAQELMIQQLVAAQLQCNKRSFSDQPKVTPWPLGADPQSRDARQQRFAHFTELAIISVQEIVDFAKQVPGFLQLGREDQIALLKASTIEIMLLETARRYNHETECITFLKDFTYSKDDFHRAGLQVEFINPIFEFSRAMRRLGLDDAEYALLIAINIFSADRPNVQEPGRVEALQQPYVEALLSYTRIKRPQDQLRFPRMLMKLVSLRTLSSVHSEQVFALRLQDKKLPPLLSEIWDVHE
LXRb:RXRa, sequence (P19793 whole entry, chain 2 of 2): as the sequence (P19793 whole entry, chain 2 of 2) above
Summary of the method: as §1

PXR:RXRa = PXR:RXRa (Homo sapiens, UniProt O75469;P19793 full;full); assay: as above; settings: tags: His kept;His cleaved; copies: 1;1; label: surface-attached array probe
PXR:RXRa, sequence (O75469 whole entry, chain 1 of 2): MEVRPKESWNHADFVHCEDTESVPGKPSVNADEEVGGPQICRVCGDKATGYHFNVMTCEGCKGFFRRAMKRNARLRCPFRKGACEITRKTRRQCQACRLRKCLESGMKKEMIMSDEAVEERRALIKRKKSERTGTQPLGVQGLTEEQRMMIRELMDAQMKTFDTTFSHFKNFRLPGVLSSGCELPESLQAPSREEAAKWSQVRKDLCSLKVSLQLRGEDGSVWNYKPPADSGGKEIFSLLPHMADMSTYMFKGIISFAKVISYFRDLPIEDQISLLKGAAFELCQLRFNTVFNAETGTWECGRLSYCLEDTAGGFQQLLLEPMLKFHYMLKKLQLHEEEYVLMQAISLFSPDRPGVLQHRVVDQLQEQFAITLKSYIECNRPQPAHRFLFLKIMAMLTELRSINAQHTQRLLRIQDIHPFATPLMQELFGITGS
PXR:RXRa, sequence (P19793 whole entry, chain 2 of 2): as the sequence (P19793 whole entry, chain 2 of 2) above
Summary of the method: as §1

FXR:RXRa = FXR:RXRa (Homo sapiens, UniProt Q96RI1;P19793 full;full); assay: as above; settings: tags: His kept;His cleaved; copies: 1;1; label: surface-attached array probe
FXR:RXRa, sequence (Q96RI1 whole entry, chain 1 of 2): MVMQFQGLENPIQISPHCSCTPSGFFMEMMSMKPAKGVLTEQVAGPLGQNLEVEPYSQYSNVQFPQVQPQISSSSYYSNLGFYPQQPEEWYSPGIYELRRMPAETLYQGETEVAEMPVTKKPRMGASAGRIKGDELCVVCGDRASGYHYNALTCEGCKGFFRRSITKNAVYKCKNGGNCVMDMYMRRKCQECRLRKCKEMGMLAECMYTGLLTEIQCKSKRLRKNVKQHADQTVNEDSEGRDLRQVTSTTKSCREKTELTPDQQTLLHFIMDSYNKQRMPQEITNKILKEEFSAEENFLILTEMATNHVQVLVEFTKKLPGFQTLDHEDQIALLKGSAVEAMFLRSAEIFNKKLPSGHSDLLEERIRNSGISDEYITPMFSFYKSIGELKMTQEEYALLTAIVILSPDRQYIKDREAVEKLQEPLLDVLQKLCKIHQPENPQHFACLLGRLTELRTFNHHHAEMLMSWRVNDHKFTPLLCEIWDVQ
FXR:RXRa, sequence (P19793 whole entry, chain 2 of 2): as the sequence (P19793 whole entry, chain 2 of 2) above
Summary of the method: as §1

RARg:RXRa = RARg:RXRa (Homo sapiens, UniProt P13631;P19793 full;full); assay: as above; settings: tags: His kept;His cleaved; copies: 1;1; label: surface-attached array probe
Summary of the method: as §1

VDR:RXRa = VDR:RXRa (Homo sapiens, UniProt P11473;P19793 full;full); assay: as above; settings: tags: His kept;His cleaved; copies: 1;1; label: surface-attached array probe
VDR:RXRa, sequence (P11473 whole entry, chain 1 of 2): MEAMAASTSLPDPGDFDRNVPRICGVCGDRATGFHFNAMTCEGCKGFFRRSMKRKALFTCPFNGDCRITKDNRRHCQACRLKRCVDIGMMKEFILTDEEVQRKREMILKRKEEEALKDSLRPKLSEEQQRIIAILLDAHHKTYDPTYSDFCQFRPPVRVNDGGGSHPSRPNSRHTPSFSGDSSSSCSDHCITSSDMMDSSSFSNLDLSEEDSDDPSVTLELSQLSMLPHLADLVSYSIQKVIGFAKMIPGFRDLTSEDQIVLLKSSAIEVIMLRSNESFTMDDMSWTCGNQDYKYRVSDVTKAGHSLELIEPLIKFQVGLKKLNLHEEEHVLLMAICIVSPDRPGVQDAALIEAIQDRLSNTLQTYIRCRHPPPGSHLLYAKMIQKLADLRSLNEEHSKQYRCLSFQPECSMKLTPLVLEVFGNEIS
VDR:RXRa, sequence (P19793 whole entry, chain 2 of 2): as the sequence (P19793 whole entry, chain 2 of 2) above
Summary of the method: as §1

PPARa:RXRa = PPARa:RXRa (Homo sapiens, UniProt Q07869;P19793 full;full); assay: as above; settings: tags: GST kept;His cleaved; copies: 1;1; label: surface-attached array probe
PPARa:RXRa, sequence (Q07869 whole entry, chain 1 of 2): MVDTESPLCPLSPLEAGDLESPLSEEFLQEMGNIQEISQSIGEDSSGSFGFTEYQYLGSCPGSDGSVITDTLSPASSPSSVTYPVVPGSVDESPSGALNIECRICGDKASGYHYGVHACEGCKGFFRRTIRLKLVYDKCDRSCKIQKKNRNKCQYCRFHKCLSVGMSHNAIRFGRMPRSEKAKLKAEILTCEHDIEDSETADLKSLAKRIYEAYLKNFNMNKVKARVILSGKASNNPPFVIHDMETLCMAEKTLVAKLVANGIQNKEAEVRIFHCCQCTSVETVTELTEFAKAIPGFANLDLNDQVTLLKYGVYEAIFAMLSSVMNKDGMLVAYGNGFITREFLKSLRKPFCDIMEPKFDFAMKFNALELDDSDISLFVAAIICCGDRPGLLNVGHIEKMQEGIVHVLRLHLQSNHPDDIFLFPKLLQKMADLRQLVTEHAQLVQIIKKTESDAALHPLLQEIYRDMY
PPARa:RXRa, sequence (P19793 whole entry, chain 2 of 2): as the sequence (P19793 whole entry, chain 2 of 2) above
Summary of the method: as §1

RARb:RXRa = RARb:RXRa (Homo sapiens, UniProt P10826;P19793 full;full); assay: as above; settings: tags: His kept;His cleaved; copies: 1;1; label: surface-attached array probe
RARb:RXRa, sequence (P10826 whole entry, chain 1 of 2): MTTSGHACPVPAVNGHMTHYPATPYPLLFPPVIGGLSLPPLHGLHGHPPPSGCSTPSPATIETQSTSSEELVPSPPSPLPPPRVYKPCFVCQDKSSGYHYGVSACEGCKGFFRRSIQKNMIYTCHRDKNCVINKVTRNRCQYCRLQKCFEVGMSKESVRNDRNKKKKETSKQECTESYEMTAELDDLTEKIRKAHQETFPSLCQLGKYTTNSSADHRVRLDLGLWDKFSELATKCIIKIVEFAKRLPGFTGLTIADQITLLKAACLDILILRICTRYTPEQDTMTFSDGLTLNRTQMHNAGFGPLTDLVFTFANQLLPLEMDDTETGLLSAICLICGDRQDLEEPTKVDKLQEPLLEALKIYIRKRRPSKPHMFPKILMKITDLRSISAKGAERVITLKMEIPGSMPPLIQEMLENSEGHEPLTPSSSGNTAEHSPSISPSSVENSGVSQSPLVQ
RARb:RXRa, sequence (P19793 whole entry, chain 2 of 2): as the sequence (P19793 whole entry, chain 2 of 2) above
Summary of the method: as §1

RXRa = RXRa (Homo sapiens, UniProt P19793); assay: no ligand; PBM; 180 nM; PBS pH 7.4, 2% milk, 0.02% Triton X-100, 1 mM DTT, BSA, 0.4 mg/ml salmon testes DNA; settings: tags: His cleaved; chain copies: 2; label: surface-attached array probe
RXRa, sequence (P19793 whole entry): as the sequence (P19793 whole entry, chain 2 of 2) above

Binder | binding signal (RARa:RXRa) | binding signal (PPARg:RXRa) | binding signal (LXRa:RXRa) | binding signal (LXRb:RXRa) | binding signal (PXR:RXRa) | binding signal (FXR:RXRa) | binding signal (RARg:RXRa) | binding signal (VDR:RXRa) | binding signal (PPARa:RXRa) | binding signal (RARb:RXRa) | binding signal (RXRa)
B1 | 7.08 PBM z-score against 500 random probes | 13.1 PBM z-score against 500 random probes | – | – | – | – | – | – | – | – | –
B2 | 8.63 PBM z-score against 500 random probes | – | 7.79 PBM z-score against 500 random probes | 7.37 PBM z-score against 500 random probes | 7.48 PBM z-score against 500 random probes | 8.84 PBM z-score against 500 random probes | 8.47 PBM z-score against 500 random probes | 8.7 PBM z-score against 500 random probes | 6.92 PBM z-score against 500 random probes | 6.08 PBM z-score against 500 random probes | 10.1 PBM z-score against 500 random probes
B3 | 7.65 PBM z-score against 500 random probes | 10.4 PBM z-score against 500 random probes | – | – | – | – | – | – | – | – | 8.23 PBM z-score against 500 random probes
B4 | 7.26 PBM z-score against 500 random probes | 10.5 PBM z-score against 500 random probes | – | – | – | – | – | – | – | – | –
B5 | 8.72 PBM z-score against 500 random probes | – | 8.85 PBM z-score against 500 random probes | 8.12 PBM z-score against 500 random probes | 7.87 PBM z-score against 500 random probes | 8.87 PBM z-score against 500 random probes | 8.87 PBM z-score against 500 random probes | 7.94 PBM z-score against 500 random probes | 7 PBM z-score against 500 random probes | 6.14 PBM z-score against 500 random probes | 9.58 PBM z-score against 500 random probes
B6 | 8.33 PBM z-score against 500 random probes | – | 8.87 PBM z-score against 500 random probes | 7.93 PBM z-score against 500 random probes | 7.9 PBM z-score against 500 random probes | 9.24 PBM z-score against 500 random probes | 8.98 PBM z-score against 500 random probes | 7.51 PBM z-score against 500 random probes | 6.96 PBM z-score against 500 random probes | 6.03 PBM z-score against 500 random probes | 9.84 PBM z-score against 500 random probes
B7 | 7.84 PBM z-score against 500 random probes | 11.9 PBM z-score against 500 random probes | – | – | – | – | – | – | 6.9 PBM z-score against 500 random probes | – | 8.68 PBM z-score against 500 random probes
B8 | 7.77 PBM z-score against 500 random probes | 11.8 PBM z-score against 500 random probes | – | – | – | – | – | – | 6.94 PBM z-score against 500 random probes | – | 8.7 PBM z-score against 500 random probes
B9 | 8.37 PBM z-score against 500 random probes | 10.9 PBM z-score against 500 random probes | – | – | – | – | – | – | 6.54 PBM z-score against 500 random probes | – | 8.42 PBM z-score against 500 random probes
B10 | 7.26 PBM z-score against 500 random probes | 9.96 PBM z-score against 500 random probes | – | – | – | – | – | – | – | – | 8.22 PBM z-score against 500 random probes
B11 | 0.01 PBM z-score against 500 random probes | 0.3 PBM z-score against 500 random probes | – | – | – | – | – | – | – | – | 0.22 PBM z-score against 500 random probes
B12 | 8.54 PBM z-score against 500 random probes | 10.6 PBM z-score against 500 random probes | – | – | – | – | – | – | – | – | 8.07 PBM z-score against 500 random probes
B13 | 7.48 PBM z-score against 500 random probes | 9.6 PBM z-score against 500 random probes | – | – | – | – | – | – | – | – | 8.52 PBM z-score against 500 random probes
B14 | 7.75 PBM z-score against 500 random probes | 5.41 PBM z-score against 500 random probes | – | – | – | – | 9.04 PBM z-score against 500 random probes | – | – | – | –
B15 | 8.25 PBM z-score against 500 random probes | 12.7 PBM z-score against 500 random probes | – | – | – | – | – | – | 7.1 PBM z-score against 500 random probes | – | 9.29 PBM z-score against 500 random probes
B16 | 8.23 PBM z-score against 500 random probes | 11.2 PBM z-score against 500 random probes | – | – | – | – | – | – | – | – | 8.53 PBM z-score against 500 random probes
